This passage reports APC mean fluorescence intensity, incubation and FITC mean fluorescence intensity, incubation results from patent publication US20090280128A1.

The target of test [1] is C-FLAG ILT7 (human ILT7 with FLAG tag at the C terminus, co-expressed with Myc-FcRγ) (human) (UniProt P59901). In words: flow cytometry on ILT7-CHO cells, control antibody, APC-labeled goat anti-mouse IgG. A general note: A flow cytometer gives signals particle by particle.
Test [2] has the same target. In words: flow cytometry on ILT7-CHO cells, control antibody, APC goat anti-mouse IgG then FITC donkey anti-goat IgG.

Chain of C-FLAG ILT7 (human ILT7 with FLAG tag at the C terminus, co-expressed with Myc-FcRγ) (human) (P59901 other isoform, or with tags, fused parts or gaps): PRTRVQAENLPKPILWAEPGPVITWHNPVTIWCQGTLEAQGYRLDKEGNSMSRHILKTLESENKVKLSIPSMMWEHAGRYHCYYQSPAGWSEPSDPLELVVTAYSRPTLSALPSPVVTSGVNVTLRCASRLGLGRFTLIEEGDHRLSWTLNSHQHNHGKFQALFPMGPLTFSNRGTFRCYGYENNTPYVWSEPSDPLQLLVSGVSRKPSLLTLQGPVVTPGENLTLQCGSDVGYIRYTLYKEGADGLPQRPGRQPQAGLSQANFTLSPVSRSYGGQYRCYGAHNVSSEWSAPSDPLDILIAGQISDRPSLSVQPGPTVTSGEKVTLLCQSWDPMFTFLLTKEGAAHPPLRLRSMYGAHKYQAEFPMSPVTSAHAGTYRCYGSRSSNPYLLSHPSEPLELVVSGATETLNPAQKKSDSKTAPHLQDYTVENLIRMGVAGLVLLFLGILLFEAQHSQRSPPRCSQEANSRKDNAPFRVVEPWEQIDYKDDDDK

In test [1], Mouse IgG2a (antibody) yielded an APC mean fluorescence intensity, incubation at 4 °C of 3 and an APC mean fluorescence intensity, incubation at 37 °C of 3.64. Besides, in test [2], the FITC mean fluorescence intensity, incubation at 4 °C worked out at 3.7 and the FITC mean fluorescence intensity, incubation at 37 °C came to 4.2.
